Test results taken from paper PMC8294587, “Intrinsic differences in the mechanisms of Tie2 binding to angiopoietins exploited by directed evolution to create an Ang2-selective ligand trap” (The Journal of Biological Chemistry, 2021).

T1: Angiopoietin-1 (UniProt Q15389 16-498)
T1 construct: recombinant Ang1; the residue numbers printed for Ang1 (Gln415, Asp450, Leu471, Tyr478) come from the cited structure 4K0V; also called Ang1; source: recombinant
T1 sequence (looked up): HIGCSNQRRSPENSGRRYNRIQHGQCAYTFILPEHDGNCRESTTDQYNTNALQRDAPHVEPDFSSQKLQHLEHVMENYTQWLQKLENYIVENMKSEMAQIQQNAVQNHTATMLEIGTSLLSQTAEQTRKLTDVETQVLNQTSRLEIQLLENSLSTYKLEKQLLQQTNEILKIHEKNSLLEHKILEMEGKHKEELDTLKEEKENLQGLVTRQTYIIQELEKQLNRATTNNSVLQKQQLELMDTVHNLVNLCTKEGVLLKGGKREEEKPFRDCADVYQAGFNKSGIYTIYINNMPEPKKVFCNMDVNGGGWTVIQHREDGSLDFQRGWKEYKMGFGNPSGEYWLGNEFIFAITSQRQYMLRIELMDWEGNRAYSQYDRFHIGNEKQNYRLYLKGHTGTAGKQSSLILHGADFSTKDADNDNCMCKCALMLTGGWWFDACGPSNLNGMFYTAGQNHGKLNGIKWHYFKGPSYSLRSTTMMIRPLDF

T2: Angiopoietin-2 (UniProt O15123 19-496)
T2 construct: recombinant Ang2; the residue numbers printed for Ang2 (Asp448, Phe469, Ser480) come from the cited structure 2GY7; also called Ang2; source: recombinant
T2 sequence (looked up): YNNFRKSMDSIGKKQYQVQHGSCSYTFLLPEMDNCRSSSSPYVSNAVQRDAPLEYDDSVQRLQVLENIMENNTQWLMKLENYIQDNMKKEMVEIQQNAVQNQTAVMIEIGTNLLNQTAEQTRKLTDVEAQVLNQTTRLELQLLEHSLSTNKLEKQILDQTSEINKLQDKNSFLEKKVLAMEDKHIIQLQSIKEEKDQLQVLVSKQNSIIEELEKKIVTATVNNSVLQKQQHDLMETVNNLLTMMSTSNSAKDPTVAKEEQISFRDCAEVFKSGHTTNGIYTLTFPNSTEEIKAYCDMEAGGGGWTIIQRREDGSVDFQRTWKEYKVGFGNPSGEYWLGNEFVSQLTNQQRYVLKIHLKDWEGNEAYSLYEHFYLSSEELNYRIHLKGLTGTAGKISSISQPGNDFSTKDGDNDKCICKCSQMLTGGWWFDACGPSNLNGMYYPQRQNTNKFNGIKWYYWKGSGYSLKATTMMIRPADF


Key:
[1] = target: T1, Angiopoietin-1; assay: ELISA; recombinant Ang1 or Ang2 immobilised on Maxisorp plates, blocked with TBS, 0.1% Triton-X100, 5% milk powder; Tie2 ectodomain proteins bound for 1 h; detected with anti-Tie2 ectodomain antibodies; EC50 = concentration of ectodomain for 50% of maximal binding; details: both partners purified
[2] = target: T2, Angiopoietin-2; assay: as above; details: both partners purified

| Binder | binding result [1] | binding result [2] | EC50 [2] [nM] |
| --- | --- | --- | --- |
| Tie2 ectodomain-Fc Arg167Ala/His168Ala (Fc fusion, human, UniProt Q02763 23-442, looked up, signal peptide in the construct; Tie2 ectodomain, human, residues 1-442; also called Arg167Ala/His168Ala Tie2 ectodomain mutant; double substitution; source: Hek293, transfected, purified from culture medium (nickel chromatography); not shown: Fc (fragment of human Fc immunoglobulin domain, after a GS4 linker), C-terminal, kept) AMDLILINSLPLVSDAETSLTCIASGWRPHEPITIGRDFEALMNQHQDPLEVTQDVTREWAKKVVWKREKASKINGAYFCEGRVRGEAIRIRTMKMRQQASFLPATLTMTVDKGDNVNISFKKVLIKEEDAVIYKNGSFIHSVPAAEVPDILEVHLPHAQPQDAGVYSARYIGGNLFTSAFTRLIVRRCEAQKWGPECNHLCTACMNNGVCHEDTGECICPPGFMGRTCEKACELHTFGRTCKERCSGQEGCKSYVFCLPDPYGCSCATGWKGLQCNEACHPGFYGPDCKLRCSCNNGEMCDRFQGCLCSPGWQGLQCEREGIQRMTPKIVDLPDHIEVNSGKFNPICKASGWPLPTNEEMTLVKPDGTVLHPKDFNHTDHFSVAIFTIHRILPPDSGVWVCSVNTVAGMVEKPFNISVK | binds | binds |  |
| monomeric wild-type Tie2 ectodomain (domain or fragment, human, UniProt Q02763 23-748, looked up, wild-type Tie2 ectodomain, monomeric form; also called Wt monomer; monomeric Tie2) AMDLILINSLPLVSDAETSLTCIASGWRPHEPITIGRDFEALMNQHQDPLEVTQDVTREWAKKVVWKREKASKINGAYFCEGRVRGEAIRIRTMKMRQQASFLPATLTMTVDKGDNVNISFKKVLIKEEDAVIYKNGSFIHSVPRHEVPDILEVHLPHAQPQDAGVYSARYIGGNLFTSAFTRLIVRRCEAQKWGPECNHLCTACMNNGVCHEDTGECICPPGFMGRTCEKACELHTFGRTCKERCSGQEGCKSYVFCLPDPYGCSCATGWKGLQCNEACHPGFYGPDCKLRCSCNNGEMCDRFQGCLCSPGWQGLQCEREGIQRMTPKIVDLPDHIEVNSGKFNPICKASGWPLPTNEEMTLVKPDGTVLHPKDFNHTDHFSVAIFTIHRILPPDSGVWVCSVNTVAGMVEKPFNISVKVLPKPLNAPNVIDTGHNFAVINISSEPYFGDGPIKSKKLLYKPVNHYEAWQHIQVTNEIVTLNYLEPRTEYELCVQLVRRGEGGEGHPGPVRRFTTASIGLPPPRGLNLLPKSQTTLNLTWQPIFPSSEDDFYVEVERRSVQKSDQQNIKVPGNLTSVLLNNLHPREQYVVRARVNTKAQGEWSEDLTAWTLSDILPPQPENIKISNITHSSAVISWTILDGYSISSITIRYKVQGKNEDQHVDVKIKNATITQYQLKGLEPETAYQVDIFAENNIGSSNPAFSHELVTLPESQAPADLGGGKMLL |  |  | 22.7 |
| R5 Tie2 ectodomain-Fc with Ser171 reverted back to Pro (Fc fusion, human, UniProt Q02763 23-442, looked up, signal peptide in the construct; Tie2 ectodomain, human, residues 1-442; also called evolved ectodomain in which Ser171 was reverted back to Pro; source: Hek293, transfected, purified from culture medium (nickel chromatography); not shown: Fc (fragment of human Fc immunoglobulin domain, after a GS4 linker), C-terminal, kept) AMDLILINSLPLVSDAETSLTCIASGWRPHEPITIGRDFEALMNQHQDPLEVTQDVTREWAKKVVWKREKASKINGAYFCEGRVRGEAIRIRTMKMRQQASFLPATLTMTVDKGDNVNISFKKVLIKEEDAVIYKNGSIIHLVPEVPDILEVHLPHAQPQDAGVYSARYIGGNLFTSAFTRLIVRRCEAQKWGPECNHLCTACMNNGVCHEDTGECICPPGFMGRTCEKACELHTFGRTCKERCSGQEGCKSYVFCLPDPYGCSCATGWKGLQCNEACHPGFYGPDCKLRCSCNNGEMCDRFQGCLCSPGWQGLQCEREGIQRMTPKIVDLPDHIEVNSGKFNPICKASGWPLPTNEEMTLVKPDGTVLHPKDFNHTDHFSVAIFTIHRILPPDSGVWVCSVNTVAGMVEKPFNISVK |  | binds |  |
